# According to publication PMC3750179:
# Legend:
# Myc-GABAB1 = Myc-GABAB1 (UniProt Q9Z0U4); experiment: co-IP; cell surface immunoprecipitation: intact COS-1 cells incubated with mouse anti-Myc on ice for 3 h, then PBS or 100 μM baclofen for 15 min, lysed, protein G-agarose, Western blot; cells also expressed HA-GABAB2
# HA-GABAB2 = HA-GABAB2 (UniProt O88871)
# HA-GABAB1-YFP = HA-GABAB1-YFP (UniProt Q9Z0U4); experiment: FRET or BRET; BRET donor saturation curves in intact COS-1 cells: fixed Rluc fusion (donor) and fixed GABAB2, increasing GABAB1-YFP (acceptor); coelenterazine h 5 μM; PBS or 100 μM baclofen for 15 min; fit with a single binding site
# Sequence of UniProt O88871 (O88871 41-940): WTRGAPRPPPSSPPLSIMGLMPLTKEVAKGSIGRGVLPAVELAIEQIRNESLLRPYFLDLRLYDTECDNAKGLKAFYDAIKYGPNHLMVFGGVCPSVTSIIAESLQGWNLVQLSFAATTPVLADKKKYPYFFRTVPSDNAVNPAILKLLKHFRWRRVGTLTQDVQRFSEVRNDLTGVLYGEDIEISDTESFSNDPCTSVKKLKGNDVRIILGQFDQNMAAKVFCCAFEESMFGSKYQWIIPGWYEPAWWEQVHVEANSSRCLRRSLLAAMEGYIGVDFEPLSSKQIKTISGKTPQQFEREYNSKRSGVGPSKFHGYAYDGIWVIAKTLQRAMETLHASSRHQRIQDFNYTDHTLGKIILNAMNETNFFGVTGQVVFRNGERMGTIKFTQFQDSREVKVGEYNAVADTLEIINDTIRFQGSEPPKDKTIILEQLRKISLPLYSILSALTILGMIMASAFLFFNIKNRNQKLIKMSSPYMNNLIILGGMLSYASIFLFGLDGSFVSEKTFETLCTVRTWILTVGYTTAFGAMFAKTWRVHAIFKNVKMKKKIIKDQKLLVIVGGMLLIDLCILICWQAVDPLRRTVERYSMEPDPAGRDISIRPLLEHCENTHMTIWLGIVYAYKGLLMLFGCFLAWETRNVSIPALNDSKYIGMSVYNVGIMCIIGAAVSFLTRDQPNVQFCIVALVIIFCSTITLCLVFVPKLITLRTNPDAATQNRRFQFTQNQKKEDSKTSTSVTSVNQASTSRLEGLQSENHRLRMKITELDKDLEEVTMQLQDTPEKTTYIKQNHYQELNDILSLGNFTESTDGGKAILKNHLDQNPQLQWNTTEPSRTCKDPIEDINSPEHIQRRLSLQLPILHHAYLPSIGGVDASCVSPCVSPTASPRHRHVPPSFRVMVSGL
substance,measurement,setting,value
FLAG-KCTD12 (from UniProt Q6WVG3 1-327) (natural protein),ratio of KCTD12:GABAB1 band intensity on Western blots (PBS),Myc-GABAB1,0.84
same,ratio of KCTD12:GABAB1 band intensity on Western blots (baclofen),Myc-GABAB1,0.91
Myc-GABAB1 (from UniProt Q9Z0U4 20-960) (receptor),Endo H-resistant fraction of GABAB1 protein in COS-1 cells co-expressing GABAB1 and GABAB2 (all GABAB1 Endo H-sensitive without GABAB2),HA-GABAB2,44.5%
Rluc-KCTD12 (from UniProt Q6WVG3 1-327) (natural protein),BRET50,HA-GABAB1-YFP,0.026
